Several values for one entry are separate records, joined by “and”; a condition that tells them apart may be missing. Equal values may be shown once.
How the values were obtained:
[1] = biological target: human GPIHBP1 coated on ELISA wells (human) (UniProt Q8IV16); experiment: ELISA
crystal structure = biological target: the molecule itself; experiment: crystal structure

Sequence of human GPIHBP1 coated on ELISA wells (human) (Q8IV16 21-151): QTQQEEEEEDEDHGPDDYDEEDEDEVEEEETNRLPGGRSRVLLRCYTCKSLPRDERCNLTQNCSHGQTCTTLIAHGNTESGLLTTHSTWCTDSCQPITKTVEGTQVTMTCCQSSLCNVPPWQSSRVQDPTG

“FLAG-tagged human LPL-M404R (from UniProt P06858 28-475) (enzyme)” was tested. Which percent reduction of binding against LPL-wt [1] did it give?
Its percent reduction of binding against LPL-wt is 79% and 85%.

B1: human lipoprotein lipase harboring an R324A mutation (enzyme, UniProt P06858 28-475, looked up)
chain: ADQRRDFIDIESKFALRTPEDTAEDTCHLIPGVAESVATCHFNHSSKTFMVIHGWTVTGMYESWVPKLVAALYKREPDSNVIVVDWLSRAQEHYPVSAGYTKLVGQDVARFINWMEEEFNYPLDNVHLLGYSLGAHAAGIAGSLTNKKVNRITGLDPAGPNFEYAEAPSRLSPDDADFVDVLHTFTRGSPGRSIGIQKPVGHVDIYPNGGTFQPGCNIGEAIRVIAERGLGDVDQLVKCSHERSIHLFIDSLLNEENPSKAYRCSSKEAFEKGLCLSCRKNRCNNLGYEINKVRAKASSKMYLKTRSQMPYKVFHYQVKIHFSGTESETHTNQAFEISLYGTVAESENIPFTLPEVSTNKTYSFLIYTEVDIGELLMLKLKWKSDSYFSWSDWWSSPGFAIQKIRVKAGETQKKVIFCSREKVSHLQKGKAPAVFVKCHDKSLNKKSG
modifications: N-linked glycans at N70 and N386
Does B1 bind (crystal structure)?
Result: binds
